{"source": "patent US6632633B1", "about": "“Process for oxidation of steroids and genetically engineered cells used therein” (Aventis Pharma, S.A., priority 1988, dated 2003)", "molecules": {"B1": {"name": "type I enzyme: human 3β-hydroxy-5-ene steroid dehydrogenase/5-ene-4-ene isomerase type I, isolated from placenta, also expressed in skin (protein, UniProt P14060 2-373, looked up)", "3 beta-hydroxysteroid …": "TGWSCLVTGAGGFLGQRIIRLLVKEKELKEIRVLDKAFGPELREEFSKLQNKTKLTVLEGDILDEPFLKRACQDVSVIIHTACIIDVFGVTHRESIMNVNVKGTQLLLEACVQASVPVFIYTSSIEVAGPNSYKEIIQNGHEEEPLENTWPAPYPHSKKLAEKAVLAANGWNLKNGGTLYTCALRPMYIYGEGSRFLSASINEALNNNGILSSVGKFSTVNPVYVGNVAWAHILALRALQDPKKAPSIRGQFYYISDDTPHQSYDNLNYTLSKEFGLRLDSRWSFPLSLMYWIGFLLEIVSFLLRPIYTYRPPFNRHIVTLSNSVFTFSYKKAQRDLAYKPLYSWEEAKQKTVEWVGSLVDRHKETLKSKTQ"}, "B2": {"name": "purified ADX: adrenodoxin purified from bovine adrenal cortex, 10 μM in buffer (protein)", "chain": "SSSEDKITVHFINRDGETLTTKGKIGDSLLDVVVQNNLDIDGFGACEGTLACSTCHLIFEQHIFEKLEAITDEENDMLDLAYGLTDRSRLGCQICLTKAMDNMTVRVPDAVSDARESIDMGMNSSKIE"}, "B3": {"name": "adrenodoxin reductase purified from bovine adrenal cortex (protein)", "chain": "STQEQTPQICVVGSGPAGFYTAQHLLKHHSRAHVDIYEKQLVPFGLVRFGVAPDHPEVKNVINTFTQTARSDRCAFYGNVEVGRDVTVQELQDAYHAVVLSYGAEDHQALDIPGEELPGVFSARAFVGWYNGLPENRELAPDLSCDTAVILGQGNVALDVARILLTPPDHLEKTDITEAALGALRQSRVKTVWIVGRRGPLQVAFTIKELREMIQLPGTRPMLDPADFLGLQDRIKEAARPRKRLMELLLRTATEKPGVEEAARRASASRAWGLRFFRSPQQVLPSPDGRRAAGIRLAVTRLEGIGEATRAVPTGDVEDLPCGLVLSSIGYKSRPIDPSVPFDPKLGVVPNMEGRVVDVPGLYCSGWVKRGPTGVITTTMTDSFLTGQILLQDLKAGHLPSGPRPGSAFIKALLDSRGVWPVSFSDWEKLDAEEVSRGQASGKPREKLLDPQEMLRLLGH"}, "B4": {"name": "Bovine cytochrome P450 side chain cleavage enzyme (P450SCC), mature protein with added methionine start, expressed recombinantly (pGBSCC-5, pGBSCC-17, … (protein)", "chain": "MISTKTPRPYSEIPSPGDNGWLNLYHFWREKGSQRIHFRHIENFQKYGPIYREKLGNLESVYIIHPEDVAHLFKFEGSYPERYDIPPWLAYHRYYQKPIGVLFKKSGTWKKDRVVLNTEVMAPEAIKNFIPLLNPVSQDFVSLLHKRIKQQGSGKFVGDIKEDLFHFAFESITNVMFGERLGMLEETVNPEAQKFIDAVYKMFHTSVPLLNVPPELYRLFRTKTWRDHVAAWDTIFNKAEKYTEIFYQDLRRKTEFRNYPGILYCLLKSEKMLLEDVKANITEMLAGGVNTTSMTLQWHLYEMARSLNVQEMLREEVLNARRQAEGDISKMLQMVPLLKASIKETLRLHPISVTLQRYPESDLVLQDYLIPAKTLVQVAIYAMGRDPAFFSSPDKFDPTRWLSKDKDLIHFRNLGFGWGVRQCVGRRIAELEMTLFLIHILENFKVEMQHIGDVDTIFNLILTPDKPIFLVFRPFNQDPPQA"}, "B5": {"name": "P450SCC expressed from pre-P450SCC encoding DNA in yeast (pGBSCC-12 in K. lactis, pGBSCC-13 in S. cerevisiae SCC-105) (protein)", "chain": "MLARGLPLRSALVKACPPILSTVGEGWGHHRVGTGEGAGISTKTPRPYSEIPSPGDNGWLNLYHFWREKGSQRIHFRHIENFQKYGPIYREKLGNLESVYIIHPEDVAHLFKFEGSYPERYDIPPWLAYHRYYQKPIGVLFKKSGTWKKDRVVLNTEVMAPEAIKNFIPLLNPVSQDFVSLLHKRIKQQGSGKFVGDIKEDLFHFAFESITNVMFGERLGMLEETVNPEAQKFIDAVYKMFHTSVPLLNVPPELYRLFRTKTWRDHVAAWDTIFNKAEKYTEIFYQDLRRKTEFRNYPGILYCLLKSEKMLLEDVKANITEMLAGGVNTTSMTLQWHLYEMARSLNVQEMLREEVLNARRQAEGDISKMLQMVPLLKASIKETLRLHPISVTLQRYPESDLVLQDYLIPAKTLVQVAIYAMGRDPAFFSSPDKFDPTRWLSKDKDLIHFRNLGFGWGVRQCVGRRIAELEMTLFLIHILENFKVEMQHIGDVDTIFNLILTPDKPIFLVFRPFNQDPPQA"}, "B6": {"name": "type II 3β HSDH: human 3β HSDH type II, isolated from adrenals and gonads (protein, UniProt P26439 1-372, looked up)", "3 beta-hydroxysteroid …": "MGWSCLVTGAGGLLGQRIVRLLVEEKELKEIRALDKAFRPELREEFSKLQNRTKLTVLEGDILDEPFLKRACQDVSVVIHTACIIDVFGVTHRESIMNVNVKGTQLLLEACVQASVPVFIYTSSIEVAGPNSYKEIIQNGHEEEPLENTWPTPYPYSKKLAEKAVLAANGWNLKNGDTLYTCALRPTYIYGEGGPFLSASINEALNNNGILSSVGKFSTVNPVYVGNVAWAHILALRALRDPKKAPSVRGQFYYISDDTPHQSYDNLNYILSKEFGLRLDSRWSLPLTLMYWIGFLLEVVSFLLSPIYSYQPPFNRHTVTLSNSVFTFSYKKAQRDLAYKPLYSWEEAKQKTVEWVGSLVDRHKETLKSKTQ"}, "B7": {"name": "P450SCC purified from bovine adrenal cortex (protein)", "chain": "ISTKTPRPYSEIPSPGDNGWLNLYHFWREKGSQRIHFRHIENFQKYGPIYREKLGNLESVYIIHPEDVAHLFKFEGSYPERYDIPPWLAYHRYYQKPIGVLFKKSGTWKKDRVVLNTEVMAPEAIKNFIPLLNPVSQDFVSLLHKRIKQQGSGKFVGDIKEDLFHFAFESITNVMFGERLGMLEETVNPEAQKFIDAVYKMFHTSVPLLNVPPELYRLFRTKTWRDHVAAWDTIFNKAEKYTEIFYQDLRRKTEFRNYPGILYCLLKSEKMLLEDVKANITEMLAGGVNTTSMTLQWHLYEMARSLNVQEMLREEVLNARRQAEGDISKMLQMVPLLKASIKETLRLHPISVTLQRYPESDLVLQDYLIPAKTLVQVAIYAMGRDPAFFSSPDKFDPTRWLSKDKDLIHFRNLGFGWGVRQCVGRRIAELEMTLFLIHILENFKVEMQHIGDVDTIFNLILTPDKPIFLVFRPFNQDPPQA"}}, "key": {"pregnenolone": {"test_system": "pregnenolone", "conditions": "after expression in HeLa cells of the respective cDNA's; cited from earlier work"}, "cytochrome P450SCC": {"target": "T1, cytochrome P450SCC (Bos taurus, UniProt P00189)", "T1 construct": "1.5 μM of P450 SCC (purified from bovine adrenal cortex); from tissue; host or cells: bovine adrenal cortex", "T1 sequence (P00189 40-520)": "B7 chain", "assay": "ADX activity (electron transfer from adrenodoxin reductase to cytochrome P450SCC) in cell-free extracts by P450SCC activity assay", "assay_type": "biochemical, bovine", "conditions": "within 15 minutes at 30° C.", "experimental": "K. lactis ADX-102, obtained as described in Example 23, and control strain K. lactis CBS 2360 were grown in 100 ml of YEPD medium (1% yeast extract, 2% peptone, 2% glucose monohydrate) containing 2.5 ml of a 6.7% (w/w) yeast nitrogen base (Difco laboratories) solution and 100 mg 1^−1 of geneticin (G418 sulfate; Gibco Ltd.), for 56 hours at 30° C. The cells were collected by centrifugation (4,000×g, 15 minutes), resuspended in a physiological salt solution and washed with a phosphate buffer (pH 7.0, 50 mM). After centrifugation (4,000×g, 15 minutes), the pellet was resuspended in a phosphate buffer (pH 7.0, 50 mM) resulting in a suspension containing 0.5 g cell wet weight/ml. The cells were disrupted using a Braun MSK Homogenizer (6×15 seconds, 0.45-0.50 mm glass beads) and unbroken cells were removed by centrifugation (4,000×g, 15 minutes). […]\nADX activity, i.e. electrotransfer capacity from adrenodoxin reductase to cytochrome P450SCC, in the cell-free extracts was determined by a P450SCC activity assay. […]\nThe assay was started by mixing 75 μl of solution A with 50 μl of solution B and 125 μl of cell-free extract or 125 μl of a potassium phosphate buffer (50 mM, pH 7.0) containing 10 μM ADX (purified from bovine adrenal cortex). […] The suspension was heated for 15 minutes at 120° C. and then, the ^14C/^3H ratio was determined by double label liquid scintillation counting. […]"}, "[1]": {"target": "T2, ADX purified from bovine adrenal cortex, P00257", "T2 chain": "B2 chain"}, "[2]": {"target": "T3, Bovine adrenodoxin (ADX), mature protein with added methionine start, expressed in K. lactis from pGBADX-1 or pGBSCC/ADX-1, P00257", "T3 chain": "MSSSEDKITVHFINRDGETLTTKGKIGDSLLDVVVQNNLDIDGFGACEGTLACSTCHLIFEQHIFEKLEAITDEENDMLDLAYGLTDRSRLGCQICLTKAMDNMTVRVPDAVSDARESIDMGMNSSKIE"}}, "data": [{"molecule": "B1", "values": [{"measurement": "Km", "setting": "pregnenolone", "result": 0.24, "unit": "µM"}]}, {"molecule": "B2", "values": [{"measurement": "yield of cholesterol side chain cleavage", "setting": "cytochrome P450SCC", "result": 50, "unit": "%"}]}, {"molecule": "B3", "values": [{"measurement": "side chain cleavage of cholesterol (P450SCC activity assay, 14C/3H ratio)", "setting": "[1]", "result": "the side chain of the cholesterol was cleaved within 15 minutes in a yield of 50%"}, {"measurement": "side chain cleavage of cholesterol (P450SCC activity assay, 14C/3H ratio)", "setting": "[2]", "result": "the side chain of the cholesterol was cleaved within 15 minutes in a yield of 50%"}]}, {"molecule": "B4", "values": [{"measurement": "cholesterol side-chain cleaving reaction in the presence of NADPH and ADR", "setting": "[2]", "result": "cholesterol side-chain cleaving activity was demonstrated in the cell-free extract of K. lactis SCC/ADX-101, whereas the cell-free extract of K. lactis SCC-101, no activity was detectable"}]}, {"molecule": "B5", "values": [{"measurement": "side chain cleavage of cholesterol (P450SCC activity assay, 14C/3H ratio)", "setting": "[1]", "result": "During 3 hours of incubation, 45% of the cholesterol had been converted"}]}, {"molecule": "B6", "values": [{"measurement": "Km", "setting": "pregnenolone", "result": 1.2, "unit": "µM"}]}, {"molecule": "B7", "values": [{"measurement": "side chain cleavage of cholesterol (P450SCC activity assay, 14C/3H ratio)", "setting": "[1]", "result": "the side chain of the cholesterol was cleaved within 15 minutes in a yield of 50%"}, {"measurement": "side chain cleavage of cholesterol (P450SCC activity assay, 14C/3H ratio)", "setting": "[2]", "result": "the side chain of the cholesterol was cleaved within 15 minutes in a yield of 50%"}]}]}
